From patent US20220267415A1

Molecular target: SARS-CoV-2 spike protein, wild type, on live virus (SARS-CoV-2-mNG / USA-WA1/2020) (SARS-CoV-2) (UniProt P0DTC2)
Assay: cell-based or functional assay

Substance: IgG antibody carrying the VH and VL regions of Sotrovimab (S309)
- Neutralization EC50: 0.17 µg/mL
